# Results reported in patent publication US20200283528A1 (NUMAB THERAPEUTICS, published 2020).
# B1: PRO1057 (38_02_A04 sc01 scDb-i/33-03-G02 sc01 scDb-o/mxr HSA (23-13-A01-sc03, sk17sh4)) (other)
# chain: DIQMTQSPSSLSASVGDRVTITCQASQSINDYLAWYQQKPGKAPKLLIYKASTLASGVPSRFSGSGSGTDFTLTISSLQPEDFATYYCQQGYIITDIDNVFGTGTKVTVLGGGGGSQVQLQESGPGLVKPSETLSLTCKVSGFSFSNSYWICWIRQPPGKGLEWIGCTFVGSSDSTYYANWAKGRVTISVDSSKNQFSLKLSSVTAADTAVYYCARHPSDAVYGYANNLWGQGTLVTVSSGGGGSGGGGSGGGGSGGGGSIQMTQSPSSLSASVGDRVTITCQASQSINNVLAWYQQKPGKAPKLLIYRASTLASGVPSRFSGSGSGTDFTLTISSLQPEDFATYYCQSSYGNYGDFGTGTKVTVLGGGGGSQVQLQESGPGLVKPSETLSLTCKVSGFSFSSGYDMCWIRQPPGKGLEWIGCVVAGSVDITYYASWAKGRVTISVDSSKNQFSLKLSSVTAADTAVYYCARKDAYSDAFNLWGQGTLVTVSSGGGGSGGGGSVVMTQSPSSLSASVGDRVTITCQASQIISSRSAWYQQKPGQPPKLLIYQASKLASGVPSRFSGSGSGTDFTLTISSLQPEDFATYYCQCTYIDSNFGAFGGGTKLTVLGGGGGSGGGGSGGGGSGGGGSEVQLVESGGGLVQPGGSLRLSCAASGFSFSSSYWICWVRQAPGKGLEWVGCVFTGDGTTYYASWAKGRFTISRDNSKNTVYLQMNSLRAEDTATYFCARPVSVYYYGMDLWGQGTLVTVSS
# Assays:
# [1] = molecular target: T1, human PDL1 (recombinant, soluble) (human, UniProt Q9NZQ7 19-238); experiment: PDL1/PD-1 competition ELISA; PD-1 coated, biotinylated PDL1 1 ng/ml
# T1 construct: also called hPDL1; hPD-L1
# Procedure: (§1) ELISA microplates coated overnight at 4° C. with 4 μg/ml human PD-1 were washed three times with 450 μl wash buffer per well. Plates were blocked for 1 hour at room temperature by adding 300 μl of PBS with 1% BSA and 0.2% tween (dilution buffer) to each well. […] The mixtures were pre-incubated for 1 hour at room temperature under gentle agitation on a rotating mixer (21 rpm) and added to the microplates after 3 wash cycles with 450 μl wash buffer per well. Plates were incubated for 1.5 hours at room temperature under gentle agitation, then 10 ng/ml streptavidin-polyHRP40 was added to each microplate well after three washes with 450 μl of wash buffer per well. After 1 h incubation at RT, plates were washed three times with 450 μl wash buffer and TMB substrate solution was added. The enzymatic reaction was stopped after 6 minutes by addition of 1 M HCl and absorbance was measured at 450 nm using 690 nm as a reference wavelength. For calculation of IC₅₀ values, a four-parameter logistic (4PL) curve fit was performed in Graph Pad Prism using reference subtracted values.
# [2] = molecular target: human PDL1 expressed on cells (human, UniProt Q9NZQ7 19-290); experiment: cell-based or functional assay
# [3] = molecular target: T1, human PDL1 (recombinant, soluble); experiment: PDL1/B7-1 competition ELISA; B7-1 coated, biotinylated PDL1 40 ng/ml
# Procedure: as §1, with “B7-1” for “PD-1”
# [4] = molecular target: T1, human PDL1 (recombinant, soluble); experiment: PDL1/PD-1 competition ELISA with human serum albumin
# Procedure: as §1
# [5] = molecular target: T1, human PDL1 (recombinant, soluble); experiment: PD-1/PDL1 competition ELISA in the presence of 1 mg/ml human serum albumin: biotinylated human PDL1 pre-incubated with the inhibitor, then binding to plate-coated human PD-1; blocked ligand PD-1
# Procedure: as §1
binder,measurement,setting,value
B1,IC50,[1],0.00861 µg/mL
same,NF-AT potency assay IC50 (with HSA),[2],0.665 µg/mL
same,IC50,[3],0.0163 µg/mL
same,fold higher IC50 in presence of human serum albumin,[4],~2 fold
same,IC50 (read off the curve),[5],~0.02 µg/mL
